This is an account of results in article doi:10.1101/2023.05.22.541649.

In one test the target is GFP-I3-01. Kind of test: fluorescence intensity of single particles.
In the next test the target is GFP-I3-01 (recombinant). In words: fluorescence intensity of single particles.
Test [1] concerns the target GFP-CENP-T^1–242^/3D-I3-01 (human) (UniProt Q96BT3). Kind of test: fluorescence intensity of single particles.
The target in test [2] is GFP-CENP-T^1–242–I3-01 (human) (UniProt Q96BT3). Kind of test: fluorescence intensity of single particles.
The target is the same in test [3]. Kind of test: affinity purification with mass spectrometry.
Test [4] addresses GFP-CENP-T^1–242^/3D-I3-01 (human) (UniProt Q96BT3). Kind of test: single-molecule TIRF binding assay. Conditions: scale: NDC80^Bonsai molecules per GFP-CENP-T^1–242^/3D molecule.
The target in test [5] is GFP-CENP-T^1–242^/3D (human) (UniProt Q96BT3). In words: single-molecule TIRF binding assay. Conditions: scale: NDC80^Bonsai complexes per GFP-CENP-T^1–242^/3D molecule.

As for GFP-I3-01, the stoichiometry N (GFP molecules per oligomer) with GFP-I3-01 was determined as 51.

Turning to GFP-I3-01 (recombinant), the stoichiometry N (GFP molecules per oligomer) in the test with GFP-I3-01 (recombinant) was found to be 44.

The substance “GFP-CENP-T^1–242^/3D-I3-01 (from UniProt Q96BT3 1-242)” returned a stoichiometry N (molecules per complex) in test [1] of 66.

Turning to “GFP-CENP-T^1–242–I3-01 (from UniProt Q96BT3 1-242)”, the stoichiometry N (GFP molecules per oligomer) in test [2] came out at 41.

In turn, “NDC80 complex (from UniProt O14777 1-642; Q8NBT2 1-197; Q9HBM1 1-224)” had a fold more per CENP-T molecule than with monomeric GFP-CENP-T^1–242 in test [3] of 5.6 fold.

In the case of “KNL1 complex (from UniProt Q8NG31 1-2342)”, the fold more per CENP-T molecule than with monomeric GFP-CENP-T^1–242 in test [3] was 2.7 fold.

Substance “MIS12 complex (from UniProt Q9H081 1-205)” showed a fold more per CENP-T molecule than with monomeric GFP-CENP-T^1–242 in test [3] of 5.4 fold.

Consider GFP-tagged NDC80^Bonsai complex, for which the stoichiometry N in test [4] came to 2.2; in test [5], 0.28.
